Tests used:
AncSZ = assay: phosphorylation enrichment, bacterial display (enrichment ratio); higher = better substrate or ligand; peptides without Tyr show the background
Hck = Hck (UniProt P08631); assay: as above
MERTK = MERTK (UniProt Q12866); assay: as above
EPHB2 = EPHB2 (UniProt P29323); assay: as above
Fyn = Fyn (UniProt P06241); assay: as above
FGFR1 = FGFR1 (UniProt P11362); assay: as above
Fes = Fes (UniProt P07332); assay: as above
c-Src = assay: as above
Jak2 = Jak2 (UniProt O60674); assay: as above
c-Abl (mouse) = assay: as above
FGFR3 = FGFR3 (UniProt P22607); assay: as above
Sequence of FGFR3 (P22607 whole entry, looked up): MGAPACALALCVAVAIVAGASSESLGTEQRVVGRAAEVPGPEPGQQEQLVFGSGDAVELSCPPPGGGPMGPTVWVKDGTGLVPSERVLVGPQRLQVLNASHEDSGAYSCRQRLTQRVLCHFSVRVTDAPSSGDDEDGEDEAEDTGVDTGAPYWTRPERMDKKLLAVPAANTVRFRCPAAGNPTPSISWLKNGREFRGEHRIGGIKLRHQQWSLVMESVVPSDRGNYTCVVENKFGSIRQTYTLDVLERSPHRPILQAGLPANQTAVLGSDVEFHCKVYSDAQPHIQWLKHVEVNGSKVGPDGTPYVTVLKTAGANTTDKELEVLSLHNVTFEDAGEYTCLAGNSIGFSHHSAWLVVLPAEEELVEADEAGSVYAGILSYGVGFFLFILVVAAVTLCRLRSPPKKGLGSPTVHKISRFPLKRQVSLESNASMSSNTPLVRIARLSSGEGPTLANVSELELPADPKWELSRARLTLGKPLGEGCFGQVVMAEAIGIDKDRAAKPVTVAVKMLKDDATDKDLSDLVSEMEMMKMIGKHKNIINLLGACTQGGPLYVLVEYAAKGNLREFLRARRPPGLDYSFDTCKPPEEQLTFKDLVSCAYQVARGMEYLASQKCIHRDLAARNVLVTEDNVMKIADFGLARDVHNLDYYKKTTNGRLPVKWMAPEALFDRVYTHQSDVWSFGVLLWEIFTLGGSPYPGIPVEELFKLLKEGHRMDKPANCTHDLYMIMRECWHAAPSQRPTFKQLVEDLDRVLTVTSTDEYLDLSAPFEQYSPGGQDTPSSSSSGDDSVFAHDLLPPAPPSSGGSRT

Fer (mouse) = assay: as above
EPHB1 = EPHB1 (UniProt P54762); assay: as above
Sequence of EPHB1 (P54762 whole entry, looked up): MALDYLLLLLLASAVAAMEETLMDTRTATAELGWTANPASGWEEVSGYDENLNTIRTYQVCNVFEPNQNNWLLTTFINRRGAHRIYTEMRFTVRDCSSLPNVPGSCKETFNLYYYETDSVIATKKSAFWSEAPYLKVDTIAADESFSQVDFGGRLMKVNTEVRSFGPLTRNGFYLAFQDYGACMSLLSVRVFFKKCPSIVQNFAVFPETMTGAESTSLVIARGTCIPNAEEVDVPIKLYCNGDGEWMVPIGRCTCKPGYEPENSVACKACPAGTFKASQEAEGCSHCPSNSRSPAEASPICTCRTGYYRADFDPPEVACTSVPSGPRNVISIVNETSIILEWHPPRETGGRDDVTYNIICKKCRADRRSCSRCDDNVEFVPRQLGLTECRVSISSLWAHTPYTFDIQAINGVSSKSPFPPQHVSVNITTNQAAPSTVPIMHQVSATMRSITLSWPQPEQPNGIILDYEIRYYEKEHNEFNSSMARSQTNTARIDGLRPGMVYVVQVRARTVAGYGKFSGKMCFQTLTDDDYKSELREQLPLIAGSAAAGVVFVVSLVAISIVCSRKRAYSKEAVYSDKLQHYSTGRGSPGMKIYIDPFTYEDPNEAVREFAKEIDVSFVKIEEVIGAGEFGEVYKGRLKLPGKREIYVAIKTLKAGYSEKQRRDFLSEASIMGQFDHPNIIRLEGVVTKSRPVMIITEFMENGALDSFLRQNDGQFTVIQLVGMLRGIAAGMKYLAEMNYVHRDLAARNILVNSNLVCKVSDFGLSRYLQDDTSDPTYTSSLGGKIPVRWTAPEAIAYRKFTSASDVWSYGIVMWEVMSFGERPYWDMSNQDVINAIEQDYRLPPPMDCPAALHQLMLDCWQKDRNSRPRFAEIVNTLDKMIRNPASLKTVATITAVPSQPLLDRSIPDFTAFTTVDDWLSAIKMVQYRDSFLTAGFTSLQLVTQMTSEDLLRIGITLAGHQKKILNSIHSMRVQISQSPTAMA

SHP2-C SH2 = assay: SH2 binding enrichment of the phosphorylated peptide, bacterial display (enrichment ratio); higher = better substrate or ligand; peptides without Tyr show the background
c-Src SH2 = assay: as above
Grb2 SH2 = Grb2 SH2 (UniProt P62993); assay: as above
Sequence of Grb2 SH2 (P62993 whole entry, looked up, the tested form may be a part): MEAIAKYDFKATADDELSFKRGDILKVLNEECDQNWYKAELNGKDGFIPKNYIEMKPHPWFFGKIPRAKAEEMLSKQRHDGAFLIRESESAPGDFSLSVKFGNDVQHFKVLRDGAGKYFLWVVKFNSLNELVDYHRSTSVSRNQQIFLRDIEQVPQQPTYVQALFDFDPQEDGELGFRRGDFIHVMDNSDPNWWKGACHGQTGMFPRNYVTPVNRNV
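Wherever SH2 binding enrichment of the phosphorylated peptide, bacterial display is given: peptide library displayed on the E. coli surface as eCPX fusions, selected cells deep-sequenced, score is each peptide's frequency after selection divided by its frequency in the input.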
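Wherever phosphorylation enrichment, bacterial display is given: 11-residue human phosphosite peptides and single-mutation variants displayed on the E. coli surface, counted by deep sequencing, each peptide's frequency after selection divided by its frequency in the unselected input library; frequency after pTyr selection over input frequency; kinase dosed for 20-30% of maximal phosphorylation in three min.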

Sequence of Fyn (P06241 whole entry, looked up): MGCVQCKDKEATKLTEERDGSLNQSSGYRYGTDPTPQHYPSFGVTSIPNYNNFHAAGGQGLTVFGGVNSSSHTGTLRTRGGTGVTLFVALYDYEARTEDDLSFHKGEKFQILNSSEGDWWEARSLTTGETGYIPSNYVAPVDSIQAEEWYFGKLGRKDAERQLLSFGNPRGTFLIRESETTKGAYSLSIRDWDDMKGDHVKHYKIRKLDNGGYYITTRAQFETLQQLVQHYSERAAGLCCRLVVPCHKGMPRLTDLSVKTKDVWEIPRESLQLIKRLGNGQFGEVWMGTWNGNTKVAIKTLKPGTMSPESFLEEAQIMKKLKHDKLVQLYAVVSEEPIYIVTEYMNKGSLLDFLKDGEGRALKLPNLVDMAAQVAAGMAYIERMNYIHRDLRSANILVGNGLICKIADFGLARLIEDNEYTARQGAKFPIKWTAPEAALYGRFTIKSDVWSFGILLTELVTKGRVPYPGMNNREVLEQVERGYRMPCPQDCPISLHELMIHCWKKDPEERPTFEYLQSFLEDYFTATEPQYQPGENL
Sequence of FGFR1 (P11362 whole entry, looked up): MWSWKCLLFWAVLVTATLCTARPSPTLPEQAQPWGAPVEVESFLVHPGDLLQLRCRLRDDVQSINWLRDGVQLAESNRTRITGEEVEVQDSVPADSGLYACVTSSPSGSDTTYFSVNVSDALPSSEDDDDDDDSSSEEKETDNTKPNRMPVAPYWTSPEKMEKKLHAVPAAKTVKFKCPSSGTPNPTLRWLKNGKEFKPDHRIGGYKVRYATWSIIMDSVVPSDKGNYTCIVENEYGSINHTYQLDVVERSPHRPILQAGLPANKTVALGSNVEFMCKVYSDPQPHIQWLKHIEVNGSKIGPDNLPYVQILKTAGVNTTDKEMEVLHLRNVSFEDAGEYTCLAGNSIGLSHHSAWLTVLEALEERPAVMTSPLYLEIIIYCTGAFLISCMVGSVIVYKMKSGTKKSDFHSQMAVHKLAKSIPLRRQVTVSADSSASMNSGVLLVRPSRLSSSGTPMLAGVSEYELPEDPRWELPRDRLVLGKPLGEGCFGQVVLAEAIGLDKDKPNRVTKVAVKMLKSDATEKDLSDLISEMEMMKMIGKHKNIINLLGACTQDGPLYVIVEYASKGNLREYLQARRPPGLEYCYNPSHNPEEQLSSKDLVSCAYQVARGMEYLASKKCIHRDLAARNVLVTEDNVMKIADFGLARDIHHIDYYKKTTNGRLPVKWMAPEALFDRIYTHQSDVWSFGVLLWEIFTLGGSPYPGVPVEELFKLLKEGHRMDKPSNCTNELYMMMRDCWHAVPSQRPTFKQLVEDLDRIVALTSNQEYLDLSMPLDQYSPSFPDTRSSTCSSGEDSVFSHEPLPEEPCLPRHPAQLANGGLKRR
Sequence of Fes (P07332 whole entry, looked up): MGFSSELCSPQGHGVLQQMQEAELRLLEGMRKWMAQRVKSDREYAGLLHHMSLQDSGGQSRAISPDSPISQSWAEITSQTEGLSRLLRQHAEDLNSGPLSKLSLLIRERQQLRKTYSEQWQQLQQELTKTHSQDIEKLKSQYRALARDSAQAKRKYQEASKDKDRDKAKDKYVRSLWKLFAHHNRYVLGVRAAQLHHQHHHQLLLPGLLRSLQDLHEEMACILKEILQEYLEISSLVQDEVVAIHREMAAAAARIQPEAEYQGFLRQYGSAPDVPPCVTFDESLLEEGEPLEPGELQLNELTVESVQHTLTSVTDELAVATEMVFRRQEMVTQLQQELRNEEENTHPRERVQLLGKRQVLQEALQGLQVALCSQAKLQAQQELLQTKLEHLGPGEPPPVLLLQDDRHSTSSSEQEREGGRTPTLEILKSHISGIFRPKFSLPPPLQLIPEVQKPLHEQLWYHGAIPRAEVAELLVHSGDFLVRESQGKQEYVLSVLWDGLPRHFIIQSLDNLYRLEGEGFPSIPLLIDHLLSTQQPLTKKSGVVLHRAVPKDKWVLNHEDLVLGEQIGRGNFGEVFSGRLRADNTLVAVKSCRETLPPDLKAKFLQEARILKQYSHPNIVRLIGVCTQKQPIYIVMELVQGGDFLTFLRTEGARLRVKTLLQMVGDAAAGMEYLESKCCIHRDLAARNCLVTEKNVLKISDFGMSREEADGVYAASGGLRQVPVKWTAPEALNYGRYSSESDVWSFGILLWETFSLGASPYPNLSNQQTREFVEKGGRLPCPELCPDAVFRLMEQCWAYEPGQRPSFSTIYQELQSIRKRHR
Sequence of Hck (P08631 whole entry, looked up): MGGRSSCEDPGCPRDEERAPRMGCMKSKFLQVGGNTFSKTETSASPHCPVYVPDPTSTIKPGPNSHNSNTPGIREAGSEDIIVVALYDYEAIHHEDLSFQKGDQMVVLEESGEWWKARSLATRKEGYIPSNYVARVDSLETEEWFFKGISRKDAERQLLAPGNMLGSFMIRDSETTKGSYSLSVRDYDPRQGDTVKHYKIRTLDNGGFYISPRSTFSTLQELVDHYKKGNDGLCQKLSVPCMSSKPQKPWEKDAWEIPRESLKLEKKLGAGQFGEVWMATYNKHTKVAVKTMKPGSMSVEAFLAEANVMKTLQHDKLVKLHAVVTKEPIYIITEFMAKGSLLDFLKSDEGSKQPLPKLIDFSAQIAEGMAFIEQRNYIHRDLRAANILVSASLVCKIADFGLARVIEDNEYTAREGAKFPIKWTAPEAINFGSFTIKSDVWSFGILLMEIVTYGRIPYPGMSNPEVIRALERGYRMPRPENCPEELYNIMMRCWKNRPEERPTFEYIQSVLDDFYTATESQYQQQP

Row | Sequence | phosphorylation enrichment (AncSZ) | phosphorylation enrichment (Hck) | phosphorylation enrichment (MERTK) | phosphorylation enrichment (EPHB2) | phosphorylation enrichment (Fyn) | phosphorylation enrichment (FGFR1) | phosphorylation enrichment (Fes) | phosphorylation enrichment (c-Src) | phosphorylation enrichment (Jak2) | phosphorylation enrichment (c-Abl (mouse)) | phosphorylation enrichment (FGFR3) | phosphorylation enrichment (Fer (mouse)) | phosphorylation enrichment (EPHB1) | SH2 binding enrichment (SHP2-C SH2) | SH2 binding enrichment (c-Src SH2) | SH2 binding enrichment (Grb2 SH2)
1 | DHLASYLDKVR [KRT10_Y160_R156H] | 0.585 | 0.439 | 0.453 | 0.477 | 0.406 | 0.46 | 0.677 | 0.457 | 0.639 | 0.473 | 0.469 | 0.363 | 0.369 | 0.714 | 0.44 | 0.776
2 | FSQQTYCRVSN [ABCD1_Y180_Y181C] | 0.875 | 1.34 | 0.745 | 2.1 | 0.557 | 0.538 | 0.981 | 0.881 | 0.764 | 0.76 | 0.644 | 0.558 | 3.39 | 0.688 | 1.02 | 0.817
3 | ELTTCYRKKCS [CCBE1_Y70_C75S] | 0.764 | 0.458 | 0.467 | 0.565 | 0.454 | 0.536 | 0.816 | 0.444 | 1.12 | 0.64 | 0.501 | 0.362 | 0.431 | 0.741 | 1.04 | 1.25
4 | MANFVYKAGPS [MAML2_Y515_M514V_YF] | 0.681 | 0.499 | 0.371 | 0.553 | 0.423 | 0.517 | 0.65 | 0.365 | 0.477 | 0.417 | 0.469 | 0.39 | 0.436 | 0.825 | 0.66 | 1.01
5 | DFGSGYPNDPK [RNASEH2A_Y210_YF] | 0.778 | 0.423 | 0.424 | 0.469 | 0.382 | 0.397 | 0.678 | 0.464 | 0.906 | 0.562 | 0.579 | 0.39 | 0.516 | 0.712 | 0.409 | 0.749
6 | WIPNQYPIISE [NOG_Y222_I220N] | 0.86 | 0.465 | 0.342 | 0.526 | 0.361 | 0.63 | 0.98 | 0.636 | 0.862 | 0.747 | 0.671 | 0.541 | 0.427 | 0.827 | 0.605 | 0.788
7 | FDGKDYIALNE [HLA-A_Y147_YF] | 1.21 | 0.6 | 0.382 | 0.704 | 0.7 | 0.601 | 1.06 | 0.386 | 0.898 | 0.654 | 0.68 | 0.496 | 0.628 | 0.807 | 0.557 | 0.785
8 | NRKGKYFNVER [ANAPC4_Y469] | 0.478 | 0.695 | 0.411 | 0.448 | 0.386 | 0.473 | 0.575 | 0.487 | 0.379 | 0.631 | 0.451 | 0.351 | 0.367 | 0.51 | 0.299 | 0.498
9 | KNKELYSDLFD [PDE10A_Y300] | 1.13 | 0.958 | 1.35 | 0.794 | 0.68 | 0.556 | 1.14 | 0.6 | 0.898 | 0.918 | 0.66 | 1.84 | 1.03 | 0.715 | 1.15 | 1.04
10 | MSSLYYANALF [HOXB7_Y6_T9A] | 1.04 | 6.04 | 10.7 | 8.29 | 4.93 | 5.32 | 1.04 | 4.88 | 2.94 | 3.44 | 4.83 | 5.14 | 7.33 | 1.36 | 2.08 | 4.61
11 | NSAFFYKTAEE [CCT6B_Y250_G247A] | 0.962 | 0.496 | 0.439 | 0.472 | 0.524 | 0.452 | 1.23 | 0.38 | 0.927 | 0.593 | 0.696 | 0.47 | 0.521 | 0.923 | 0.565 | 1.19
12 | ILTFKYLQIPM [KIT_Y547_K550I_YF] | 1.07 | 0.453 | 0.371 | 0.649 | 0.468 | 0.442 | 1.16 | 0.344 | 1.02 | 0.637 | 0.663 | 0.521 | 0.586 | 1.67 | 1.17 | 1.69
13 | GEEIKYMLWLL [OTC_Y55_S60L] | 1 | 0.663 | 1.58 | 0.554 | 0.5 | 0.752 | 1.55 | 0.544 | 0.912 | 0.77 | 0.975 | 1.88 | 0.722 | 1.01 | 0.716 | 1.16
14 | FARECYSALPQ [SARS2_Y52_G51C_YF] | 1.66 | 2.93 | 1.18 | 0.603 | 0.671 | 1.17 | 1.01 | 0.702 | 0.761 | 0.726 | 1.06 | 0.982 | 0.55 | 0.759 | 0.5 | 0.762
15 | NKVKFYIPFMN [NCR1_Y84_D87Y_YF] | 0.897 | 0.436 | 0.482 | 0.528 | 0.437 | 0.431 | 1.02 | 0.413 | 0.824 | 0.699 | 0.519 | 0.507 | 0.551 | 1.22 | 1.57 | 1.64
16 | TLSGIYQFNIA [FOXL2_Y81_I84N_YF] | 0.891 | 2.98 | 5.39 | 0.555 | 4.21 | 0.543 | 0.741 | 4.73 | 0.696 | 0.676 | 0.539 | 7.33 | 0.76 | 0.971 | 0.742 | 1
17 | YECKWYIPLTD [BCR_Y756_D752E] | 1.48 | 0.585 | 0.922 | 0.774 | 0.469 | 0.812 | 1.56 | 0.576 | 1.48 | 1 | 1.1 | 0.657 | 0.843 | 0.665 | 0.477 | 0.704
